# Test results: patent publication US20230265151A1, “GIP/GLP1 CO-AGONIST COMPOUNDS” (priority 2020, published 2023)
# Positions count from the first letter of the chain named.
# B1: Y-Aib-EGT-αMeF(2F)-TSD-4Pal-SI-αMeL-LD-Orn-K((2-[2-(2-Amino-ethoxy)-ethoxy]-acetyl)-(γ-Glu)-CO-(CH2)14-CH3)AQ-Aib-EFI-(D-Glu)-αMeY-LIEGGK((2-[2-(2-Amino-ethoxy) … (peptide)
# peptide: YXEGTXTSDXSIXLDXKAQXEFIXXLIEGGKSSGAPPPS
# modifications: Aib2, αMeF(2F)6, 4Pal10, αMeL13, Orn16, Aib20, D-Glu24, αMeY25; acylated K17, K31 (groups as in name); C-terminal amide
# B2: Y-Aib-EGT-αMeF(2F)-TSD-4Pal-SI-αMeL-LD-Orn-K((2-[2-(2-Amino-ethoxy)-ethoxy]-acetyl)-(γ-Glu)-CO-(CH2)12-CO2H)AQ-Aib-EFIK((2-[2-(2-Amino-ethoxy)-ethoxy]-acetyl)-( … (peptide)
# peptide: B1 peptide with X24K, K31P
# modifications: Aib2, αMeF(2F)6, 4Pal10, αMeL13, Orn16, Aib20, αMeY25; acylated K17, K24 (groups as in name); C-terminal amide
# B3: Y-Aib-EGT-αMeF(2F)-TSD-4Pal-SI-αMeL-LD-Orn-K((2-[2-(2-Amino-ethoxy)-ethoxy]-acetyl)-(γ-Glu)-(4-(4-tert-butylphenyl)butanoyl))AQ-Aib-K((2-[2-(2-Amino-ethoxy)-eth … (peptide)
# peptide: B1 peptide with E21K, K31P
# modifications: Aib2, αMeF(2F)6, 4Pal10, αMeL13, Orn16, Aib20, D-Glu24, αMeY25; acylated K17, K21 (groups as in name); C-terminal amide
# B4: Y-Aib-EGT-αMeF(2F)-TSD-4Pal-SI-αMeL-LD-Orn-K((εK)-(2-[2-(2-Amino-ethoxy)-ethoxy]-acetyl)2-(γ-Glu)-CO-(CH2)12-CO2H)AQ-Aib-EFI-(D-Glu)-αMeY-LIEGGK((εK)-(2-[2-(2-A … (peptide)
# peptide: B1 peptide
# modifications: Aib2, αMeF(2F)6, 4Pal10, αMeL13, Orn16, Aib20, D-Glu24, αMeY25; acylated K17, K31 (groups as in name); C-terminal amide
# B5: Y-Aib-EGT-αMeF(2F)-TSD-4Pal-SI-αMeL-LD-Orn-K((γ-Glu)-(2-[2-(2-Amino-ethoxy)-ethoxy]-acetyl)2-CO-(CH2)12-CO2H)AQ-Aib-EFI-(D-Glu)-αMeY-LIEGGK((γ-Glu)-(2-[2-(2-Ami … (peptide)
# peptide: B1 peptide
# modifications: Aib2, αMeF(2F)6, 4Pal10, αMeL13, Orn16, Aib20, D-Glu24, αMeY25; acylated K17, K31 (groups as in name); C-terminal amide
# B6: Y-Aib-EGT-αMeF-TSD-4Pal-SI-αMeL-LD-Orn-K((2-[2-(2-Amino-ethoxy)-ethoxy]-acetyl)2-(γ-Glu)-CO-(CH2)12-CO2H)AQ-Aib-EFI-(D-Glu)-αMeY-LIEGGK((2-[2-(2-Amino-ethoxy)-e … (peptide)
# peptide: B1 peptide
# modifications: Aib2, αMeF6, 4Pal10, αMeL13, Orn16, Aib20, D-Glu24, αMeY25; acylated K17, K31 (groups as in name); C-terminal amide
# B7: Y-Aib-EGT-αMeF(2F)-TSD-4Pal-SI-αMeL-LD-Orn-K((2-[2-(2-Amino-ethoxy)-ethoxy]-acetyl)2-CO-(CH2)12-CO2H)AQ-Aib-EFI-(D-Glu)-αMeY-LIK((2-[2-(2-Amino-ethoxy)-ethoxy]- … (peptide)
# peptide: B1 peptide with E28K, K31P
# modifications: Aib2, αMeF(2F)6, 4Pal10, αMeL13, Orn16, Aib20, D-Glu24, αMeY25; acylated K17, K28 (groups as in name); C-terminal amide
# B8: Y-Aib-EGT-αMeF(2F)-TSD-4Pal-SI-αMeL-LD-Orn-K((2-[2-(2-Amino-ethoxy)-ethoxy]-acetyl)2-(γ-Glu)-CO-(CH2)14-CH3)AQ-Aib-EFIK((2-[2-(2-Amino-ethoxy)-ethoxy]-acetyl)2- … (peptide)
# peptide: B1 peptide with X24K, K31P
# modifications: Aib2, αMeF(2F)6, 4Pal10, αMeL13, Orn16, Aib20, αMeY25; acylated K17, K24 (groups as in name); C-terminal amide
# B9: Y-Aib-EGT-αMeF(2F)-TSD-4Pal-SI-αMeL-LD-Orn-K((2-[2-(2-Amino-ethoxy)-ethoxy]-acetyl)-(γ-Glu)-(4-(4-tert-butylphenyl)butanoyl))AQ-Aib-EFI-(D-Glu)-αMeY-LIK((2-[2-( … (peptide)
# peptide: B1 peptide with E28K, K31P
# modifications: Aib2, αMeF(2F)6, 4Pal10, αMeL13, Orn16, Aib20, D-Glu24, αMeY25; acylated K17, K28 (groups as in name); C-terminal amide
# B10: Y-Aib-EGT-αMeF(2F)-TSD-4Pal-SI-αMeL-LD-Orn-K((2-[2-(2-Amino-ethoxy)-ethoxy]-acetyl)3-(γ-Glu)-CO-(CH2)14-CH3)AQ-Aib-EFI-(D-Glu)-αMeY-LIEGGK((2-[2-(2-Amino-ethoxy … (peptide)
# peptide: B1 peptide
# modifications: Aib2, αMeF(2F)6, 4Pal10, αMeL13, Orn16, Aib20, D-Glu24, αMeY25; acylated K17, K31 (groups as in name); C-terminal amide
# B11: Y-Aib-EGT-αMeF(2F)-TSD-4Pal-SI-αMeL-LD-Orn-K((εK)-(εK)-(γ-Glu)-CO-(CH2)12-CO2H)AQ-Aib-EFI-(D-Glu)-αMeY-LIEGGK((εK)-(εK)-(γ-Glu)-CO-(CH2)12-CO2H)SSGAPPPS-NH2 (peptide)
# peptide: B1 peptide
# modifications: Aib2, αMeF(2F)6, 4Pal10, αMeL13, Orn16, Aib20, D-Glu24, αMeY25; acylated K17, K31 (groups as in name); C-terminal amide
# B12: Y-Aib-EGT-αMeF(2F)-TSD-4Pal-SI-αMeL-LD-Orn-K((2-[2-(2-Amino-ethoxy)-ethoxy]-acetyl)2-(εK)-(γ-Glu)-CO-(CH2)12-CO2H)AQ-Aib-EFI-(D-Glu)-αMeY-LIEGGK((2-[2-(2-Amino- … (peptide)
# peptide: B1 peptide
# modifications: Aib2, αMeF(2F)6, 4Pal10, αMeL13, Orn16, Aib20, D-Glu24, αMeY25; acylated K17, K31 (groups as in name); C-terminal amide
# B13: Y-Aib-EGT-αMeF(2F)-TSD-4Pal-SI-αMeL-LD-Orn-K((2-[2-(2-Amino-ethoxy)-ethoxy]-acetyl)2-(γ-Glu)-CO-(CH2)14-CH3)AQ-Aib-EFI-(D-Glu)-αMeY-LIK((2-[2-(2-Amino-ethoxy)-e … (peptide)
# peptide: B1 peptide with E28K, K31P
# modifications: Aib2, αMeF(2F)6, 4Pal10, αMeL13, Orn16, Aib20, D-Glu24, αMeY25; acylated K17, K28 (groups as in name); C-terminal amide
# B14: Y-Aib-EGT-αMeF(2F)-TSD-4Pal-SI-αMeL-LD-Orn-K((2-[2-(2-Amino-ethoxy)-ethoxy]-acetyl)3-(γ-Glu)-CO-(CH2)12-CO2H)AQ-Aib-EFI-(D-Glu)-αMeY-LIEGGK((2-[2-(2-Amino-ethox … (peptide)
# peptide: B1 peptide
# modifications: Aib2, αMeF(2F)6, 4Pal10, αMeL13, Orn16, Aib20, D-Glu24, αMeY25; acylated K17, K31 (groups as in name); C-terminal amide
# B15: Y-Aib-EGT-αMeF(2F)-TSD-4Pal-SI-αMeL-LD-Orn-K((2-[2-(2-Amino-ethoxy)-ethoxy]-acetyl)2-(γ-Glu)-CO-(CH2)10-CH3)AQ-Aib-K((2-[2-(2-Amino-ethoxy)-ethoxy]-acetyl)2-(γ- … (peptide)
# peptide: B1 peptide with E21K, K31P
# modifications: Aib2, αMeF(2F)6, 4Pal10, αMeL13, Orn16, Aib20, D-Glu24, αMeY25; acylated K17, K21 (groups as in name); C-terminal amide
# B16: Y-Aib-EGT-αMeF(2F)-TSD-4Pal-SI-αMeL-LD-Orn-K((2-[2-(2-Amino-ethoxy)-ethoxy]-acetyl)2-(γ-Glu)-CO-(CH2)12-CO2H)AQ-Aib-EFI-(D-Glu)-αMeY-LIK((2-[2-(2-Amino-ethoxy)- … (peptide)
# peptide: B1 peptide with E28K, K31P
# modifications: Aib2, αMeF(2F)6, 4Pal10, αMeL13, Orn16, Aib20, D-Glu24, αMeY25; acylated K17, K28 (groups as in name); C-terminal amide
# B17: Y-Aib-EGT-aMeF(2F)-TSD-4Pal-SI-aMeL-LD-Orn-K((2-[2-(2-Amino-ethoxy)-ethoxy]-acetyl)2-CO-(CH2)12-CO2H)AQ-Aib-EFIK((2-[2-(2-Amino-ethoxy)-ethoxy]-acetyl)2-CO-(CH2 … (peptide)
# peptide: B1 peptide with X24K, K31P
# modifications: Aib2, αMeF(2F)6, 4Pal10, αMeL13, Orn16, Aib20, αMeY25; acylated K17, K24 (groups as in name); C-terminal amide
# B18: Y-Aib-EGT-αMeF(2F)-TSD-4Pal-SI-αMeL-LD-Orn-K((εK)-(γ-Glu)-(γ-Glu)-CO-(CH2)12-CO2H)AQ-Aib-EFI-(D-Glu)-αMeY-LIEGGK((εK)-(γ-Glu)-(γ-Glu)-CO-(CH2)12-CO2H)SSGAPPPS-N … (peptide)
# peptide: B1 peptide
# modifications: Aib2, αMeF(2F)6, 4Pal10, αMeL13, Orn16, Aib20, D-Glu24, αMeY25; acylated K17, K31 (groups as in name); C-terminal amide
# B19: Y-Aib-EGT-αMeF(2F)-TSDK((2-[2-(2-Amino-ethoxy)-ethoxy]-acetyl)2-(γ-Glu)-CO-(CH2)12-CO2H)SI-αMeL-LD-Orn-K((2-[2-(2-Amino-ethoxy)-ethoxy]-acetyl)2-(γ-Glu)-CO-(CH2 … (peptide)
# peptide: B1 peptide with X10K, K31P
# modifications: Aib2, αMeF(2F)6, αMeL13, Orn16, Aib20, D-Glu24, αMeY25; acylated K10, K17 (groups as in name); C-terminal amide
# B20: Y-Aib-EGT-αMeF(2F)-TSD-4Pal-SI-αMeL-LD-Orn-K((2-[2-(2-Amino-ethoxy)-ethoxy]-acetyl)2-(γ-Glu)-CO-(CH2)14-CH3)AQ-Aib-K((2-[2-(2-Amino-ethoxy)-ethoxy]-acetyl)2-(γ- … (peptide)
# peptide: B1 peptide with E21K, K31P
# modifications: Aib2, αMeF(2F)6, 4Pal10, αMeL13, Orn16, Aib20, D-Glu24, αMeY25; acylated K17, K21 (groups as in name); C-terminal amide
# B21: Y-Aib-EGT-αMeF(2F)-TSD-4Pal-SI-αMeL-LD-Orn-K((2-[2-(2-Amino-ethoxy)-ethoxy]-acetyl)-(γ-Glu)-(2-[2-(2-Amino-ethoxy)-ethoxy]-acetyl)-CO-(CH2)12-CO2H)AQ-Aib-EFI-(D … (peptide)
# peptide: B1 peptide
# modifications: Aib2, αMeF(2F)6, 4Pal10, αMeL13, Orn16, Aib20, D-Glu24, αMeY25; acylated K17, K31 (groups as in name); C-terminal amide
# B22: Y-Aib-EGT-αMeF(2F)-TSD-4Pal-SI-αMeL-LD-Orn-IAQ-Aib-K((2-[2-(2-Amino-ethoxy)-ethoxy]-acetyl)2-(γ-Glu)-CO-(CH2)12-CO2H)FI-(D-Glu)-αMeY-LIK((2-[2-(2-Amino-ethoxy)- … (peptide)
# peptide: B1 peptide with K17I, E21K, E28K, K31P
# modifications: Aib2, αMeF(2F)6, 4Pal10, αMeL13, Orn16, Aib20, D-Glu24, αMeY25; acylated K21, K28 (groups as in name); C-terminal amide
# B23: Y-Aib-EGT-αMeF(2F)-TSDK((2-[2-(2-Amino-ethoxy)-ethoxy]-acetyl)2-(γ-Glu)-CO-(CH2)14-CH3)SI-αMeL-LD-Orn-K((2-[2-(2-Amino-ethoxy)-ethoxy]-acetyl)2-(γ-Glu)-CO-(CH2) … (peptide)
# peptide: B1 peptide with X10K, K31P
# modifications: Aib2, αMeF(2F)6, αMeL13, Orn16, Aib20, D-Glu24, αMeY25; acylated K10, K17 (groups as in name); C-terminal amide
# Target: human glucagon receptor (human, UniProt P47871 26-477)
# Test: cell-based or functional assay
row,Binder,cAMP EC50 (1.0% HSA)
1,B1,> 9.95 µM
2,B2,> 9.95 µM
3,B3,> 9.95 µM
4,B4,> 9.95 µM
5,B5,> 9.95 µM
6,B6,> 9.95 µM
7,B7,> 9.95 µM
8,B8,> 9.95 µM
9,B9,> 9.95 µM
10,B10,> 9.95 µM
11,B11,> 9.95 µM
12,B12,> 9.95 µM
13,B13,> 9.95 µM
14,B14,> 9.95 µM
15,B15,> 9.95 µM
16,B16,> 9.95 µM
17,B17,> 9.95 µM
18,B18,> 9.95 µM
19,B19,> 9.95 µM
20,B20,> 9.95 µM
21,B21,> 9.95 µM
22,B22,> 9.95 µM
23,B23,> 9.95 µM
